Experimental data reported in patent US20140105889A1 (published 2014).
Substitutions are numbered along the chain they refer to.

T1: human FcγRIIa type R (human, UniProt P12318 36-217)
T1 construct: also called FcγRIIaR; FcγRIIa(R)
T1 chain: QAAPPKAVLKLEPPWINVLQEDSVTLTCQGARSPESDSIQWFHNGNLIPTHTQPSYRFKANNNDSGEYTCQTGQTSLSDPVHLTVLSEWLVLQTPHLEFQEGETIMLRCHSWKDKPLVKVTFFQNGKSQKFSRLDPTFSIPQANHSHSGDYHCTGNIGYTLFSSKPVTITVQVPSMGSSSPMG

T2: human FcγRIIa type H (human, UniProt P12318 36-217)
T2 construct: Whole entry named for FcγRIIa allotype H131 (AAH20823.1); also called FcγRIIaH; FcγRIIa(H)
T2 sequence: T1 chain with R133H

T3: human FcγRIIb (human, UniProt P31994 43-217)
T3 construct: also called FcγIIB
T3 sequence: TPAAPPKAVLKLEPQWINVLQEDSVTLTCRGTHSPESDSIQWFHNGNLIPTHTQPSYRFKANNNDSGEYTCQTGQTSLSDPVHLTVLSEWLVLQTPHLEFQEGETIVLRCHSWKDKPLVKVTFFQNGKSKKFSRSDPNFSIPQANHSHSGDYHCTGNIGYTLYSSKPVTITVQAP

T4: human FcγRIIb (human, UniProt P31994 43-217)
T4 construct: also called FcγIIB
T4 sequence: T3 sequence

B1: IL6R-BP136/IL6R-L (antibody, human IgG1)
heavy: QVQLQESGPGLVKPSETLSLTCAVSGHSISHDHAWSWVRQPPGEGLEWIGFISYSGITNYNPSLQGRVTISRDNSKNTLYLQMNSLRAEDTAVYYCARSLARTTAMDYWGEGTLVTVSSASTKGPSVFPLAPSSKSTSGGTAALGCLVKDYFPEPVTVSWNSGALTSGVHTFPAVLQSSGLYSLSSVVTVPSSSLGTQTYICNVNHKPSNTKVDKKVEPKSCDKTHTCPPCPAPELLGGDSVFLFPPKPKDTLMISRTPEVTCVVVDVSHEDPEVKFNWYVDGVEVHNAKTKPREEQYNSTYRVVSVLTVLHQDWLNGKEYKCKVSNAALPAPIEKTISKAKGQPREPQVYTLPPSRDELTKNQVSLTCLVKGFYPSDIAVEWESNGQPENNYKTTPPVLDSDGSFFLYSKLTVDKSRWQQGNVFSCSVMHEALHNHYTQESLSLSP
light: DIQMTQSPSSLSASVGDRVTITCRASQDISSYLNWYQQKPGKAPKLLIYYTSRLHSGVPSRFSGSGSGTDFTFTISSLQPEDIATYYCQQGNTLPYTFGQGTKVEIK
notes: copies: 2 + 2
B2: IL6R-BP112/IL6R-L (antibody, human IgG1)
heavy: B1 heavy with P273G, A328K
light: B1 light
notes: copies: 2 + 2
B3: IL6R-2B002/IL6R-L (antibody, human IgG1)
heavy: B1 heavy with E235D, A328K
light: B1 light
notes: copies: 2 + 2
B4: IL6R-2B128/IL6R-L (antibody, human IgG1)
heavy: B1 heavy with Y298D, A328K
light: B1 light
notes: copies: 2 + 2
B5: IL6R-BP117/IL6R-L (antibody, human IgG1)
heavy: B1 heavy with A328D
light: B1 light
notes: copies: 2 + 2
B6: IL6R-BP142/IL6R-L (antibody, human IgG1)
heavy: B1 heavy with A328N
light: B1 light
notes: copies: 2 + 2
B7: IL6R-BP120/IL6R-L (antibody, human IgG1)
heavy: B1 heavy with A328E
light: B1 light
notes: copies: 2 + 2
B8: IL6R-BP102/IL6R-L (antibody, human IgG1)
heavy: B1 heavy with S269Q, A328K
light: B1 light
notes: copies: 2 + 2
B9: IL6R-BP078/IL6R-L (antibody, human IgG1)
heavy: B1 heavy with A328K, A332M
light: B1 light
notes: copies: 2 + 2
B10: IL6R-BP193/IL6R-L (antibody, human IgG1)
heavy: B1 heavy with E235D, H270D, P273G, A328K, A332K
light: B1 light
notes: Anti-human IL-6 receptor human IgG1 variant; copies: 2 + 2
B11: IL6R-BP192/IL6R-L (antibody, human IgG1)
heavy: B1 heavy with E235D, H270D, P273G, Y298D, A328K, A332K
light: B1 light
notes: as for B10

Molecular target: T5, human FcγRIa (human, UniProt P12314 16-292, limits assumed)
T5 construct: also called CD64
T5 sequence (P12314 16-292 limits assumed): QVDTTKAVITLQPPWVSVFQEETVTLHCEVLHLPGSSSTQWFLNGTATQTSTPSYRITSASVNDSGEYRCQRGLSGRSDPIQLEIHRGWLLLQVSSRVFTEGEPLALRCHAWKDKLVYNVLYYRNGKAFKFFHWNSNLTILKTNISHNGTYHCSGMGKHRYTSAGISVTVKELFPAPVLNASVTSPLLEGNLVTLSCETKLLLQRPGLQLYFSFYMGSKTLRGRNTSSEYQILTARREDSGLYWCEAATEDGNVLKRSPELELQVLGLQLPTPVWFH
Assay: SPR (Biacore), FcγR over captured antibody; amount bound relative to IL6R-BF648/IL6R-L x100

| Binder | relative binding |
| --- | --- |
| B1 | 117 relative value (IL6R-BF648/IL6R-L = 100) |
| B2 | 119 relative value (IL6R-BF648/IL6R-L = 100) |
| B3 | 118 relative value (IL6R-BF648/IL6R-L = 100) |
| B4 | 95 relative value (IL6R-BF648/IL6R-L = 100) |
| B5 | 124 relative value (IL6R-BF648/IL6R-L = 100) |
| B6 | 98 relative value (IL6R-BF648/IL6R-L = 100) |
| B7 | 125 relative value (IL6R-BF648/IL6R-L = 100) |
| B8 | 104 relative value (IL6R-BF648/IL6R-L = 100) |

Molecular target: T1, human FcγRIIa type R
Assay: as above

| Binder | relative binding |
| --- | --- |
| B9 | 101 relative value (IL6R-BF648/IL6R-L = 100) |
| B1 | 159 relative value (IL6R-BF648/IL6R-L = 100) |
| B2 | 340 relative value (IL6R-BF648/IL6R-L = 100) |
| B3 | 103 relative value (IL6R-BF648/IL6R-L = 100) |
| B4 | 87 relative value (IL6R-BF648/IL6R-L = 100) |
| B5 | 166 relative value (IL6R-BF648/IL6R-L = 100) |
| B6 | 103 relative value (IL6R-BF648/IL6R-L = 100) |
| B7 | 175 relative value (IL6R-BF648/IL6R-L = 100) |
| B8 | 165 relative value (IL6R-BF648/IL6R-L = 100) |

Molecular target: T2, human FcγRIIa type H
Assay: as above

| Binder | relative binding |
| --- | --- |
| B9 | 89 relative value (IL6R-BF648/IL6R-L = 100) |
| B1 | 103 relative value (IL6R-BF648/IL6R-L = 100) |
| B2 | 113 relative value (IL6R-BF648/IL6R-L = 100) |
| B3 | 147 relative value (IL6R-BF648/IL6R-L = 100) |
| B4 | 37 relative value (IL6R-BF648/IL6R-L = 100) |
| B5 | 96 relative value (IL6R-BF648/IL6R-L = 100) |
| B6 | 97 relative value (IL6R-BF648/IL6R-L = 100) |
| B8 | 66 relative value (IL6R-BF648/IL6R-L = 100) |

Molecular target: T3, human FcγRIIb
Assay: as above

| Binder | relative binding |
| --- | --- |
| B1 | 119 relative value (IL6R-BF648/IL6R-L = 100) |
| B2 | 157 relative value (IL6R-BF648/IL6R-L = 100) |
| B4 | 103 relative value (IL6R-BF648/IL6R-L = 100) |
| B5 | 118 relative value (IL6R-BF648/IL6R-L = 100) |
| B6 | 106 relative value (IL6R-BF648/IL6R-L = 100) |
| B7 | 114 relative value (IL6R-BF648/IL6R-L = 100) |
| B8 | 106 relative value (IL6R-BF648/IL6R-L = 100) |

Molecular target: T6, human FcγRIIIa type V (human, UniProt P08637 17-208, limits assumed)
T6 construct: also called FcγRIIIaV; FcγRIIIa(V)
T6 sequence (P08637 other isoform, or with tags, fused parts or gaps limits assumed): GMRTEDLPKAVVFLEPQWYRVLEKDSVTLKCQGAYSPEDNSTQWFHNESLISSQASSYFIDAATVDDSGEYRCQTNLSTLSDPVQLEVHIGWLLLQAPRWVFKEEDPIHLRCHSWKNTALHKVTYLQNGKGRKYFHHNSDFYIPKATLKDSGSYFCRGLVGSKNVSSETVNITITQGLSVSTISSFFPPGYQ
Assay: as above

| Binder | relative binding |
| --- | --- |
| B9 | 91 relative value (IL6R-BF648/IL6R-L = 100) |
| B3 | 147 relative value (IL6R-BF648/IL6R-L = 100) |
| B4 | 96 relative value (IL6R-BF648/IL6R-L = 100) |
| B8 | 86 relative value (IL6R-BF648/IL6R-L = 100) |

Molecular target: T4, human FcγRIIb
Assay: SPR (Biacore); KD of parent IL6R-B3/IL6R-L for FcγRIIb divided by KD of the variant for FcγRIIb
From the text: Furthermore, KD(IIaR)/KD(IIb) and KD(IIaH)/KD(IIb) in the table respectively represent the value obtained by dividing the KD value of each variant for FcγRIIaR by the KD value of each variant for FcγRIIb, and the value obtained by dividing the KD value of each variant for FcγRIIaH by the KD value of each variant for FcγRIIb.

| Binder | KD(IIb) of the parent polypeptide/KD(IIb) of the altered polypeptide |
| --- | --- |
| B10 | 25.5 |
| B11 | 27.3 |
